Each block holds one binder with its values, some of them ahead of it.
B1: HPK1 intact citron homology domain fragment (C428-E821), untagged (domain or fragment, UniProt Q92918-2 428-821, looked up)
chain: CASGPPPNSPRPGPPPSTSSPHLTAHSEPSLWNPPSRELDKPPLLPPKKEKMKRKGCALLVKLFNGCPLRIHSTAAWTHPSTKDQHLLLGAEEGIFILNRNDQEATLEMLFPSRTTWVYSINNVLMSLSGKTPHLYSHSILGLLERKETRAGNPIAHISPHRLLARKNMVSTKIQDTKGCRACCVAEGASSGGPFLCGALETSVVLLQWYQPMNKFLLVRQVLFPLPTPLSVFALLTGPGSELPAVCIGVSPGRPGKSVLFHTVRFGALSCWLGEMSTEHRGPVQVTQVEEDMVMVLMDGSVKLVTPEGSPVRGLRTPEIPMTEAVEAVAMVGGQLQAFWKHGVQVWALGSDQLLQELRDPTLTFRLLGSPRPVVVETRPVDDPTAPSNLYIQE
notes: HPK1 (MAP4K1), fragment left after thrombin cut after R427: two PR domains and the intact CHD, residues C428-E821; the protein is printed as M1-E821 (821 residues); Cut out of a full-length construct (T165E, S171E, R319A, thrombin site inserted after V384); none of these changes lies in the fragment; also called WT-CHD; CHD WT; source: sf9, purified; thrombin digest of full-length HPK1 (Ni, …)

Key:
[1] = target: full-length HPK1 (M1-E821, T165E, S171E, R319A, Y381E) with N-terminal His tag and C-terminal Flag (UniProt Q92918-2 1-821, T165E | S171E | R319A | Y381E, Isoform 2 (821 aa): C-terminus taken from 8EEC (entity position = residue - 478). N-terminal His and C-terminal Flag left out. A thrombin site after V384 may be present, but its sequence and its prese); experiment: AlphaScreen or HTRF; TR-FRET competition; 5 nM full-length HPK1 with C-terminal Flag labelled with anti-KD Fab-streptavidin-Lumi4Tb and anti-Flag-d2; untagged CHD titrated (23.84-97.65 µM as printed) against the KD-CHD interaction within the full-length protein; One site - Fit Ki; conditions: both partners purified
[2] = target: B1; experiment: SPR; Biacore T200; KD variants captured (56-73 RU) by a biotinylated anti-KD Fab on NeutrAvidin chip; WT-CHD injected as analyte at various concentrations; 20 mM HEPES, 300 mM NaCl, 0.1% polysorbate 20, 0.5 mM TCEP, pH 7.4; 25 °C; conditions: both partners purified
[3] = target: T1, HPK1 intact citron homology domain fragment with C-terminal Flag (Flag-CHD) (UniProt Q92918-2 428-821); experiment: AlphaScreen or HTRF; TR-FRET saturation binding; KD at 5 µM constant, Flag-CHD 1.53 nM-6.25 µM; anti-KD biotinylated Fab with streptavidin-Lumi4Tb and anti-Flag-d2; 20 mM HEPES, 300 mM NaCl, 0.1% polysorbate 20, 0.5 mM TCEP, pH 7.4; apparent KD, called overestimated by the paper; conditions: both partners purified
T1 construct: HPK1 (MAP4K1), intact CHD fragment from thrombin digestion of the full-length protein; the cut is told as after R427 (C428-E821) for the untagged construct; the protein is printed as M1-E821 (821 residues); the Flag form was made by the same digestion; also called intact CHD with C-flag; recombinant Flag-CHD; source: sf9, purified; thrombin digest of full-length HPK1 with C-terminal Flag (Ni, …)
T1 sequence (looked up): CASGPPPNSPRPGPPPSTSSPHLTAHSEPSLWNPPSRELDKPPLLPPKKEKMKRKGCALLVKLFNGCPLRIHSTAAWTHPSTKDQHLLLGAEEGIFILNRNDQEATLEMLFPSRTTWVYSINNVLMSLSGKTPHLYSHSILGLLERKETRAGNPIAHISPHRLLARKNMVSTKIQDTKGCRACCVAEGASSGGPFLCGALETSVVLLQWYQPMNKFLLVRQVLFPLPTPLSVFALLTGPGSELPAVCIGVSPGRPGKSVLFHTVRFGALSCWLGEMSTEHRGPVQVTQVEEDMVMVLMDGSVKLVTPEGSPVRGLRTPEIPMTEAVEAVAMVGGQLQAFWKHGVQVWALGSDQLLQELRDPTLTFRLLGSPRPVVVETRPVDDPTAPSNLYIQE

HPK1 ΔCHD with LgBit tag = target: T2, HPK1 ΔCHD with LgBit tag (UniProt Q92918 1-483); experiment: split reporter (BiFC, NanoBiT); NanoBit in live HPK1-/- Jurkat cells transiently transfected with SmBit-tagged SLP76 and LgBit-tagged HPK1 forms; luminescence over time, with or without TCR stimulation (anti-CD3 and anti-IgG); conditions: partners not purified
T2 construct: HPK1 (MAP4K1) without the CHD, M1-G483; limits as printed for the pMSCV construct of the same name; also called KD + 4PRs; source: HPK1-/- Jurkat cells, transiently transfected, in live cells
T2 sequence (looked up): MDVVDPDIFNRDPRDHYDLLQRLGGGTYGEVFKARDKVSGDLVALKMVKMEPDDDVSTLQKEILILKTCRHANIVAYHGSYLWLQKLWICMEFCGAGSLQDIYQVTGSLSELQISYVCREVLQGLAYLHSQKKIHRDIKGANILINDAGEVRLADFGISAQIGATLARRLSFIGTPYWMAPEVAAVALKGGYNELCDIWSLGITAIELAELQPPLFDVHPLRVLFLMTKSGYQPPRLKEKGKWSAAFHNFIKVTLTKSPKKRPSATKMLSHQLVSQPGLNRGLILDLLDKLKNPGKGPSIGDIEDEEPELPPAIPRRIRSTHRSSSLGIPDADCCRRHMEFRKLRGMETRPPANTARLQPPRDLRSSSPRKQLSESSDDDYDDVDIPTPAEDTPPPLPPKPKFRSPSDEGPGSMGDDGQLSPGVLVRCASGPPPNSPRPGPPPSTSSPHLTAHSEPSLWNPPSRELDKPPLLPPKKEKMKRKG

binding result [2]: binds
B2: HPK1 kinase domain S171A (KD SA) (domain or fragment, UniProt Q92918 2-293, looked up)
chain: DVVDPDIFNRDPRDHYDLLQRLGGGTYGEVFKARDKVSGDLVALKMVKMEPDDDVSTLQKEILILKTCRHANIVAYHGSYLWLQKLWICMEFCGAGSLQDIYQVTGSLSELQISYVCREVLQGLAYLHSQKKIHRDIKGANILINDAGEVRLADFGISAQIGATLARRLAFIGTPYWMAPEVAAVALKGGYNELCDIWSLGITAIELAELQPPLFDVHPLRVLFLMTKSGYQPPRLKEKGKWSAAFHNFIKVTLTKSPKKRPSATKMLSHQLVSQPGLNRGLILDLLDKLKN
notes: source: recombinant, purified

Kd [3]: 62.8 nM
B3: HPK1 kinase domain T165E/S171E (KD TSEE WT) (domain or fragment, UniProt Q92918 2-293, looked up)
chain: DVVDPDIFNRDPRDHYDLLQRLGGGTYGEVFKARDKVSGDLVALKMVKMEPDDDVSTLQKEILILKTCRHANIVAYHGSYLWLQKLWICMEFCGAGSLQDIYQVTGSLSELQISYVCREVLQGLAYLHSQKKIHRDIKGANILINDAGEVRLADFGISAQIGAELARRLEFIGTPYWMAPEVAAVALKGGYNELCDIWSLGITAIELAELQPPLFDVHPLRVLFLMTKSGYQPPRLKEKGKWSAAFHNFIKVTLTKSPKKRPSATKMLSHQLVSQPGLNRGLILDLLDKLKN
notes: HPK1 (MAP4K1) kinase domain, residues D2-N293, with the phosphomimetic mutations T165E/S171E; also called WT KD; active TSEE form; source: recombinant, purified

Continued, binder first:

Binder: B1
Ki [1]: 5990 nM

B4: HPK1 kinase domain T165E/S171E/L221K (KD TSEE L221K) (domain or fragment, UniProt Q92918 2-293, looked up)
chain: DVVDPDIFNRDPRDHYDLLQRLGGGTYGEVFKARDKVSGDLVALKMVKMEPDDDVSTLQKEILILKTCRHANIVAYHGSYLWLQKLWICMEFCGAGSLQDIYQVTGSLSELQISYVCREVLQGLAYLHSQKKIHRDIKGANILINDAGEVRLADFGISAQIGAELARRLEFIGTPYWMAPEVAAVALKGGYNELCDIWSLGITAIELAELQPPLFDVHPKRVLFLMTKSGYQPPRLKEKGKWSAAFHNFIKVTLTKSPKKRPSATKMLSHQLVSQPGLNRGLILDLLDKLKN
notes: HPK1 (MAP4K1) kinase domain, residues D2-N293, TSEE backbone with L221K; source: recombinant, purified
Kd [3]: 37.9 nM

B5: SLP76 with SmBit tag (natural protein, UniProt Q13094 1-533, looked up)
chain: MALRNVPFRSEVLGWDPDSLADYFKKLNYKDCEKAVKKYHIDGARFLNLTENDIQKFPKLRVPILSKLSQEINKNEERRSIFTRKPQVPRFPEETESHEEDNGGWSSFEEDDYESPNDDQDGEDDGDYESPNEEEEAPVEDDADYEPPPSNDEEALQNSILPAKPFPNSNSMYIDRPPSGKTPQQPPVPPQRPMAALPPPPAGRNHSPLPPPQTNHEEPSRSRNHKTAKLPAPSIDRSTKPPLDRSLAPFDREPFTLGKKPPFSDKPSIPAGRSLGEHLPKIQKPPLPPTTERHERSSPLPGKKPPVPKHGWGPDRRENDEDDVHQRPLPQPALLPMSSNTFPSRSTKPSPMNPLPSSHMPGAFSESNSSFPQSASLPPYFSQGPSNRPPIRAEGRNFPLPLPNKPRPPSPAEEENSLNEEWYVSYITRPEAEAALRKINQDGTFLVRDSSKKTTTNPYVLMVLYKDKVYNIQIRYQKESQVYLLGTGLRGKEDFLSVSDIIDYFRKMPLLLIDGKNRGSRYQCTLTHAAGYP
notes: SLP76 (SH2 domain-containing leukocyte protein of 76 kD); also called SH2 domain-containing leukocyte protein of 76 kD; source: HPK1-/- Jurkat cells, transiently transfected, in live cells
level of interaction at baseline relative to full-length wild-type (HPK1 ΔCHD with LgBit tag): ~0.33 fold of full-length wild-type
